# According to the supplement of paper PMC12042874:
# ± gives the uncertainty stated by the source.
# Assay: amyloid nucleation score (Sup35N fusion, yeast selection) (log enrichment); library NNK2; higher = more nucleation; inactive = no reads after selection
# Method in brief: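 On medium lacking adenine and uracil, psi-negative yeast expressing peptides of 20 random codons fused to Sup35N were grown 7 days at 30°C after a 24-hour induction with 100 μM copper sulfate. Illumina sequencing of input and output plasmid inserts gave the reads, and sequences under 100 input reads were excluded. The nucleation score is the DiMSum log enrichment of output over input reads, centred on the mode score of non-aggregating sequences.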
row,Substance,amyloid nucleation score
1,RRYIMQSWLHATSEFPGCDP,0.54 ± 0.53
2,VGLACSLS,-1.07 ± 0.78
3,CPCYCLTSFACLGNSVPTWR,10.15 ± 0.043
4,SFACVSLIFISY,5.72 ± 0.063
5,DTLCYNRMWFLPGLKMDLGG,7.62 ± 0.054
6,YFKCGGHAFCVSNYARLNDF,-0.573 ± 0.42
7,RACFHHIIGDCCYASFN,8.757 ± 0.05
8,WGICSTEVSVIEWDWNGYQF,-1.14 ± 1.1
9,RESGLRFNNYMMRWLHGGRV,-0.072 ± 0.29
10,IGMSHRSQACESFKVKCPTY,1.66 ± 0.2
11,LPEIHLVTLC,-0.802 ± 0.49
12,WERDTFAVLLVRNFNR,0.187 ± 0.43
13,QLFVMPCMNSFEGRKRNCFS,-0.836 ± 0.48
14,TSGWNAERMFEHINGQFVFL,-0.195 ± 0.49
15,LSSSMSSSRASQDFGFLGVH,0.877 ± 0.48
16,CTLRGGYISWVQVYE,2.1 ± 0.1
17,PTSCSSRN,-0.055 ± 1.1
18,VVMNFMTDVNSLVWPTS,inactive
19,YSYKFAAVSMIWVYPCEHTS,1.71 ± 0.18
20,SISIACCA,6.991 ± 0.031
21,GFLYR,-1.23 ± 0.3
22,MSTGRCILRPFLGSPRSSVV,inactive
23,ILLINCMFNQYSGC,7.894 ± 0.075
24,SYRELIYRDWLYRHVTL,1.1 ± 0.11
25,RSAWYTG,-0.203 ± 0.5

row,Substance,amyloid nucleation score
1,YSTRRLGHLMC,-0.381 ± 0.79
2,WLFIVFSTLS,-0.19 ± 1
3,FVPAVEFVHHFAVWVWRE,0.072 ± 1.1
4,SLTTLCNLTIWDH,0.756 ± 0.53
5,TVHFLHILIIFRSWSEGMPV,-0.345 ± 0.74
6,PYTSS,-0.107 ± 0.41
7,VSSETSGFMIGYLYVDLNGV,-0.814 ± 0.4
8,VGSVK,-0.394 ± 1.1
9,FFRNIIYRCMREIKFIEPSE,-0.046 ± 0.63
10,SRYGRTEGRFFVRRRGMHHG,0.21 ± 0.32
11,SLSTHIFLSSGLSLTFKKRS,inactive
12,REFQWCRSLMRYVRGWLVV,3.19 ± 0.16
13,VQATGADVFWDW,-0.199 ± 0.76
14,NSVCYGP,0.899 ± 0.47
15,TSVIIIGYCI,5.997 ± 0.034
16,PIYCNQRVDRALTMFTQFRA,-0.121 ± 1.1
17,ACAMFSKRSHSITSVVMGYG,0.29 ± 0.48
18,VNSLYCM,-0.447 ± 1.1
19,SSTYIERGLSHGKDRT,0.731 ± 0.46
20,GGWLYANGEYWWSTG,1.53 ± 0.58
21,YFCCVSTIARSMFLSRGSGR,8.771 ± 0.058
22,YRDECWLSYS,-0.347 ± 0.56
23,HLLIRGVMSTKNRCSLLVIG,-0.582 ± 0.44
24,IEGQGLIVCNGDCTGRPNLR,1.69 ± 0.39
25,LHRKWFGYGCTCSWIGWEEW,-0.002 ± 0.48

row,Substance,amyloid nucleation score
1,VVTLRCSIVKEDTNGLLPGV,2.79 ± 0.09
2,GDKSIRSPLAV,-0.087 ± 0.34
3,LSFRYVFIWIEVFPILGNMR,-1.77 ± 0.34
4,IDDDHLEHEVNGSRRCKMRW,-0.055 ± 1.1
5,SSWLRINRIYLYEQL,-0.305 ± 1
6,LMAKQFIPGTYTLRGSSFHG,-0.677 ± 0.3
7,AAIMDTKVWLPETWHTF,4.86 ± 0.049
8,PGHLLRILVFSNNYAYQRDI,-0.647 ± 0.42
9,PIVLAK,-0.672 ± 0.79
10,EEVQAFI,-0.22 ± 0.48
11,ARLLWMRP,inactive
12,YTTYGHTSHLTLYPYTPRMM,0.123 ± 0.74
13,FNYYLCTPIKVGTCPCVDFR,7.17 ± 0.075
14,FPLRLLWSGGALCATPPIRV,0.655 ± 0.47
15,LNLMVTW,-0.926 ± 0.78
16,AVLFNDTWGGFAPNWYLLLS,0.474 ± 0.38
17,VTHNYKFIQLGSEK,4.12 ± 0.074
18,TVVKDHEYKEWSDWSF,inactive
19,VCDFIW,-1.48 ± 0.63
20,MFCKLRFSVFLAWVDVK,0.356 ± 0.6
21,VLRKEFVYSGCWAKRRLG,0.165 ± 0.17
22,CIYVYSLVWM,2.42 ± 0.2
23,TDANESDR,0.905 ± 0.36
